Assay results taken from patent US20120135931A1.

Assays:
[1] = tested on: s-variegin
[2] = target: human plasma derived thrombin (human), P00734; experiment: cell-based or functional assay

Row | Molecule | cleavage of s-variegin by thrombin at 24° C. (RP-HPLC), extent at 360 min [1] | percent inhibition of thrombin amidolytic activity at equimolar concentration [2]
1 | recombinant α-thrombin (based on human α-thrombin sequence) | 360 min was needed for ~90% of cleavage | –
2 | MHKTAPPFDFEAIPEEYLDDES (modifications not checked) [MH22] | – | 15%
3 | MHKTAPPFDFEAIPEEYL (modifications not checked) [MH18] | – | 15%
